# Assay results as given in patent US20210130491A1 (ONCOTAG DIAGNOSTICS, published 2021).
# T1: MRS fragment 7 (660~860 aa) (human, UniProt P56192 660-860)
# T1 construct: not shown: Myc linked to the N-terminus
# T1 sequence: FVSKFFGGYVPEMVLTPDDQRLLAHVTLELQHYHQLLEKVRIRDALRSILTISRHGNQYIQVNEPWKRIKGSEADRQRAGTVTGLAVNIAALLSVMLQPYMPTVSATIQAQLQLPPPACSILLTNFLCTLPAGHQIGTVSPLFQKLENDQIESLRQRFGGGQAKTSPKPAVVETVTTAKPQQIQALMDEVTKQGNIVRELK
# T2: His-CRS (UniProt P49589 1-748)
# T2 construct: not shown: His tag
# T2 sequence (looked up): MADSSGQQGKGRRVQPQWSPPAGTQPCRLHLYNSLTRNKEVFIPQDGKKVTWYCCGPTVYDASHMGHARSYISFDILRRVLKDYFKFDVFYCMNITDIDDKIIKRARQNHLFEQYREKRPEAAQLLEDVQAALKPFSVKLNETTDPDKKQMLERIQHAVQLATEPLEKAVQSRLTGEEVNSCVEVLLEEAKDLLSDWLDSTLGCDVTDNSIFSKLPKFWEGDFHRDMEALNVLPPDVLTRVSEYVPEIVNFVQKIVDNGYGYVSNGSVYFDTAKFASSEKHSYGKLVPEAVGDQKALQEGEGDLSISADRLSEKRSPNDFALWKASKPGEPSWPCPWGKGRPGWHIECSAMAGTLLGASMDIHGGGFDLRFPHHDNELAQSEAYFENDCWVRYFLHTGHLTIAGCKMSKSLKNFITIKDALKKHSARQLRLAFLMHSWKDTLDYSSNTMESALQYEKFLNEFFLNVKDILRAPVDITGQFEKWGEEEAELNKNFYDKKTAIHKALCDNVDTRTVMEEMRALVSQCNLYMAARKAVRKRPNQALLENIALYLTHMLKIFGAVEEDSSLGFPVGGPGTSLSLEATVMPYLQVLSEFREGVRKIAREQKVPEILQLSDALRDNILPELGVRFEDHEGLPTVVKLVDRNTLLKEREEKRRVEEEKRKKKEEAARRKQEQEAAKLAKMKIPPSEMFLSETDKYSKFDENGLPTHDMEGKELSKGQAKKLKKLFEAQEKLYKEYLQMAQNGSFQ
# T3: 34S-AIMP2 (UniProt Q13155 1-320)
# T3 construct: not shown: '34S' tag or fusion partner
# T3 sequence (looked up): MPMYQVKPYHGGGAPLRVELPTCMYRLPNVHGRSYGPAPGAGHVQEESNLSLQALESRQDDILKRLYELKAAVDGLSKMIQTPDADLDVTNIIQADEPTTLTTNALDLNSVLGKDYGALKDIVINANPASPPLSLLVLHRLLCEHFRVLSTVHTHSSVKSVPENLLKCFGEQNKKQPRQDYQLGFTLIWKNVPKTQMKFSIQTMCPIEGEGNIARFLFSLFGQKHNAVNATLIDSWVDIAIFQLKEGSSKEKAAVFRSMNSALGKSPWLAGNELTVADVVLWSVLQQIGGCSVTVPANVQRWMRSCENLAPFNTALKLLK
# T4: His-AIMP1 (UniProt Q12904 1-312, limits assumed)
# T4 construct: not shown: His tag
# T4 sequence (looked up): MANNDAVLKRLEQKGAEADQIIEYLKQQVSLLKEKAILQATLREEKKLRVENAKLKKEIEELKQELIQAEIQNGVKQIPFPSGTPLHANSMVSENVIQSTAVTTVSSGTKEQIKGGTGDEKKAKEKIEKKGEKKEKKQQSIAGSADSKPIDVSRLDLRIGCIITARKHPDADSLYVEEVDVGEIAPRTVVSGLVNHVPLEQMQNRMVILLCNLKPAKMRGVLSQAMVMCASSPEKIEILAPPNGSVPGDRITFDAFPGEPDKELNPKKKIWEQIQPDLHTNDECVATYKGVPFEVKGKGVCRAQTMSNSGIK
# T5: His-WRS (UniProt P23381 1-471, limits assumed)
# T5 construct: not shown: His tag
# T5 sequence (looked up): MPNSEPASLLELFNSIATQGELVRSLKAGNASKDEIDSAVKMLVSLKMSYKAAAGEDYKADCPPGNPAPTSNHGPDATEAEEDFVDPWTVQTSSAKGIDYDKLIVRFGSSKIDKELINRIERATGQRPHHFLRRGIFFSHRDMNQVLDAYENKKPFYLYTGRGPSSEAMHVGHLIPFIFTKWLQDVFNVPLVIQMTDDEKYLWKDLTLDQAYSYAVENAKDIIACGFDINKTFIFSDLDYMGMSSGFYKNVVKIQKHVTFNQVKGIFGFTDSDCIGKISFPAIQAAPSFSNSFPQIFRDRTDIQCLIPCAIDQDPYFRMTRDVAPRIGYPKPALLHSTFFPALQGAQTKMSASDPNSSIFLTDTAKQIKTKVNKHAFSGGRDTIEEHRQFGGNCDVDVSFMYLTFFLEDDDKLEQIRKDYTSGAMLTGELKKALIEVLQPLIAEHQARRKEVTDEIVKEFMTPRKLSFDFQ
# B1: 1E8 antibody (1E8 IgG) (antibody, V domains shown)
# VH: DVKLQESGPGLVNPSQSLSLTCTVTGYSITSDYAWNWIRQFPGNKLEWMGYISYSGRTSYKSSLKSRISITRDTSKNQFFLELNSVTTEDTATYYCARDYGNFVGYFDVWGAGTTVTVSS
# VL: DIVMTQSPSSLAVSVGEKVTMSCKSSQSLLYSSNQKNYLAWYQQKPGQSPKLLIYWASTRESGVPDRFTGSGSGTEFTLTISSVKAEDLAVYYCQQYYSYPTFGGGTKLEIKA
# notes: Mouse monoclonal from hybridoma clone 1E8; also called IE8; anti-MRS antibody (1E8)
# B2: 8A12 antibody (8A12 IgG) (antibody, V domains shown)
# VH: DVKLQESGPGLVKPSQSLSLTCTVTGYSITSEYAWTWIRQFPGNKLEWMGYINYNGNTNLNPSLKSRISIIRDTSKNQFFLQLNSVTTEDTATYYCARSLWPRGWFAYWGQGTLVTVSA
# VL: DIQMTQSPSSMYASLGERVTITCKASQDINSYLSWFQQKPGKSPKTLMYRANRLVDGVPSRFSGSGSGQDYSLTISSLEYEDMGIYYCLQYDEFPRTFGGGTKLEIKA
# notes: Mouse monoclonal from hybridoma clone 8A12; also called 8Al2; anti-MRS antibody (8A12)
# Columns and labels:
# [1] = biological target: T1, MRS fragment 7 (660~860 aa); experiment: western blot of lysate of transfected H460 cells
# Protocol: Then, 2 μg of the cloned vector DNA were transfected into H460 cells using Turbofect (Thermo) according to the manufacturer's instructions. After 24 hours, cells were harvested and subjected to western blot. 1E8 antibody and 8A12 antibody were diluted 1:5000 (0.2 μg/mL) as the primary antibody.
# Then, western blot was performed in the same manner as described above.
# His-CRS = biological target: T2, His-CRS; experiment: ELISA, protein coated at 1 ug/ml
# Protocol: (§1) Each well of 96 well plates (Corning 3690 flat bottom, 96-well half-area plates) was coated with different kinds of ARS proteins (His-MRS, MRS full, DX2 tag free, 34S-DX2, 34S-AIMP2, His-CRS, His-AIMP1, His-GRS, His-WRS, His-KRS) at the concentration of 1 μg/ml. 1E8 and 8A12 antibodies at a concentration of 500 ng/ml were added onto the 96 well plates coated with ARS proteins and allowed to react for 1 hour. Thereafter, HRP-conjugated anti-mouse IgG secondary antibody was added and reacted for 1 hour. ELISA was performed and absorbance was measured at 450 nm. TMB (3,3′,5,5′-tetramethylbenzidine) was used as substrate.
# 34S-AIMP2 = biological target: T3, 34S-AIMP2; experiment: ELISA, protein coated at 1 ug/ml
# Protocol: as §1
# His-KRS = biological target: T6, His-KRS (UniProt Q15046 1-597); experiment: ELISA, protein coated at 1 ug/ml
# T6 construct: not shown: His tag
# T6 sequence (Q15046 whole entry): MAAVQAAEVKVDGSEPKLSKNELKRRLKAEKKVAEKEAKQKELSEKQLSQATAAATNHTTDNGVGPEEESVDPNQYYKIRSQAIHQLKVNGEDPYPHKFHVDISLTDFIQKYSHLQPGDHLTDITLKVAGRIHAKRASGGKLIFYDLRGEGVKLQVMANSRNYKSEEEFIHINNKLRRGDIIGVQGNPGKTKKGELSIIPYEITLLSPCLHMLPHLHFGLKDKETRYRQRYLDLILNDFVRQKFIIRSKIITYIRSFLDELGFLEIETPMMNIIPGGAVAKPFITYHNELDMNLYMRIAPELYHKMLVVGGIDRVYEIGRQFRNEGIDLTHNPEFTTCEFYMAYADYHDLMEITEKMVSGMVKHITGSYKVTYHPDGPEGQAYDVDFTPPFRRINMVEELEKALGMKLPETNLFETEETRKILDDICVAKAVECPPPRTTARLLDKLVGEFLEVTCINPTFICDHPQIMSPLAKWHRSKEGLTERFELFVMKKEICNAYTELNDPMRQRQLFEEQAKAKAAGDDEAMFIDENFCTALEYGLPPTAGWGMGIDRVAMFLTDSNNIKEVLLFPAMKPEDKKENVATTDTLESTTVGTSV
# Protocol: as §1
# His-AIMP1 = biological target: T4, His-AIMP1; experiment: ELISA, protein coated at 1 ug/ml
# Protocol: as §1
# His-WRS = biological target: T5, His-WRS; experiment: ELISA, protein coated at 1 ug/ml
# Protocol: as §1
Binder,binding result [1],binding result (His-CRS),binding result (34S-AIMP2),binding result (His-KRS),binding result (His-AIMP1),binding result (His-WRS)
B1,no binding (tested: 1:5000 (0.2 ug/mL)),no binding (tested: 500 ng/ml),no binding (tested: 500 ng/ml),no binding (tested: 500 ng/ml),no binding (tested: 500 ng/ml),no binding (tested: 500 ng/ml)
B2,no binding (tested: 1:5000 (0.2 ug/mL)),no binding (tested: 500 ng/ml),no binding (tested: 500 ng/ml),no binding (tested: 500 ng/ml),no binding (tested: 500 ng/ml),no binding (tested: 500 ng/ml)
